How the values were obtained:
[1] = target: murine ITGA11 expressed in CHO cells (murine) (UniProt P61622); test: flow cytometry, 34 nM antibody on CHO cells expressing murine ITGA11
[2] = target: human ITGA11 expressed in mouse C2C12 cells (human) (UniProt Q9UKX5); test: flow cytometry, 34 nM antibody on C2C12 cells expressing human ITGA11
human ITGA11 expressed in mouse C2C12 cells (human), sequence (Q9UKX5 23-1188): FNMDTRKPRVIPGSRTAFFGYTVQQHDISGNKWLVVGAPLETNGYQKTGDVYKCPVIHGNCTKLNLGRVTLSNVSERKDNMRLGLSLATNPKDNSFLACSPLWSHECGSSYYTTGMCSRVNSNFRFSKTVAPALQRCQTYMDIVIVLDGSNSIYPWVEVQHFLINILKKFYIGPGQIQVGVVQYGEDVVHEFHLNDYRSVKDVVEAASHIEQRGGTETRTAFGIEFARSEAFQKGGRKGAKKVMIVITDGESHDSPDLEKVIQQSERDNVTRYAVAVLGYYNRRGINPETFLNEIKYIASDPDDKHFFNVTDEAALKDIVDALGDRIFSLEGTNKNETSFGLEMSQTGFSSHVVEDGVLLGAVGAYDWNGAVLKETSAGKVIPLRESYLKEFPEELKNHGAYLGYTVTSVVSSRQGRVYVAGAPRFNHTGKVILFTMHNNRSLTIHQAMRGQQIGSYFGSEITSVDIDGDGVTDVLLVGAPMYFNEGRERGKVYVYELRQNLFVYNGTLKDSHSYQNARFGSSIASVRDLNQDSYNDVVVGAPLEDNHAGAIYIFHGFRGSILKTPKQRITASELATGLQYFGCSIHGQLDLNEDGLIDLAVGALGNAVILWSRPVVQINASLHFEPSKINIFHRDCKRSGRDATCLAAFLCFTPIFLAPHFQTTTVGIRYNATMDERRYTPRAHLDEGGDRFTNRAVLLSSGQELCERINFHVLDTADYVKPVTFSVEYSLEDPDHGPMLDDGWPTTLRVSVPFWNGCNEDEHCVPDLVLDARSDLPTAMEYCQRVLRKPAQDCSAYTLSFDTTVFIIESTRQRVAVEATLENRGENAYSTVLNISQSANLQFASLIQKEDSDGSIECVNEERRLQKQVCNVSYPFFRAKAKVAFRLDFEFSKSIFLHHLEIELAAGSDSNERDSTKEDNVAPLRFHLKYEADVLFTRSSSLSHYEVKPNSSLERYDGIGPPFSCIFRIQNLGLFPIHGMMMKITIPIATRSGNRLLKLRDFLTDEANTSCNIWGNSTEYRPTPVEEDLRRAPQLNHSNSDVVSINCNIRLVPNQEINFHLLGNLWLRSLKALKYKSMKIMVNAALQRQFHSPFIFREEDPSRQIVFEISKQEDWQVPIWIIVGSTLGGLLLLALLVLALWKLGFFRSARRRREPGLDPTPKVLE

murine ITGA11 expressed in CHO cells (murine), sequence (P61622 23-1188): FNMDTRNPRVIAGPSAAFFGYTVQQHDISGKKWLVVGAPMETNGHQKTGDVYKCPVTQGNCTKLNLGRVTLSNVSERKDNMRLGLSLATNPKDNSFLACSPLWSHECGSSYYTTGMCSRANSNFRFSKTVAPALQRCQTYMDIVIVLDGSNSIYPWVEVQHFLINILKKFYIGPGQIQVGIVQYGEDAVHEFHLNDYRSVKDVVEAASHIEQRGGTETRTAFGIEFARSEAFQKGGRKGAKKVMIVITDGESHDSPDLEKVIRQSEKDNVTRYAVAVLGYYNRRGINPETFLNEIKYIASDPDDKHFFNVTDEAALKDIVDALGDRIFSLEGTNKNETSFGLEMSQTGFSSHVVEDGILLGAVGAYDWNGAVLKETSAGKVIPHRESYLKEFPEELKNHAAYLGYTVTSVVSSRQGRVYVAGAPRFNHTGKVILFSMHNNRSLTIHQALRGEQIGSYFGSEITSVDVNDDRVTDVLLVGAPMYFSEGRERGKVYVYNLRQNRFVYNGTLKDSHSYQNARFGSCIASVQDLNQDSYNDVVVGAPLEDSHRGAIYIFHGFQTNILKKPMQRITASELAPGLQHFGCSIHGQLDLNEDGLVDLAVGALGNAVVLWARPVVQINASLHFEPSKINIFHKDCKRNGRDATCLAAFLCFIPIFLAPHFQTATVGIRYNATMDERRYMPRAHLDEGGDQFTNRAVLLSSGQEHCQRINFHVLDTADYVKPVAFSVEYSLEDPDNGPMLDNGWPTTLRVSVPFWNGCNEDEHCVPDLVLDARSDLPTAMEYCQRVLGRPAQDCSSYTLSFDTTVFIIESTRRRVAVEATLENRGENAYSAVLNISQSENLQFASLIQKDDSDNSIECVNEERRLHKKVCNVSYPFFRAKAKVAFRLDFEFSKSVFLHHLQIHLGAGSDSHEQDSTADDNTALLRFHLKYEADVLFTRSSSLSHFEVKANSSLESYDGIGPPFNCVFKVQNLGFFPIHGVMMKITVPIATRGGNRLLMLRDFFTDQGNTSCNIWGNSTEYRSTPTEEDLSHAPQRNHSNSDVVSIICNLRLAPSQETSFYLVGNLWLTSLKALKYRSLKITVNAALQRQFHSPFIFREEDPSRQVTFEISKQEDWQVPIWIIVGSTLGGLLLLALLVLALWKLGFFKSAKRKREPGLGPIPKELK

- MFI [1]: 513 MFI
- MFI [2]: 557 MFI
Substance: Control IgG4 (antibody)

Source: patent publication US20260159591A1
